Protein stability index data for 50 sequences are collected here from the supplement of paper PMC10724198.

± gives the standard deviation of the averaged measurements.

For this series, the system named is Saccharomyces cerevisiae. Description: protein stability index of tFT-peptide fusion (C-terminal peptide) (PSI (0-1 scale)); higher = more stable (slower turnover). Conditions: temperature: 30 C. As for the experimental part: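 MPS profiling in S. cerevisiae of the yeast C-terminome library: the last 12 aa of each annotated ORF are fused to the C-terminus of a sfGFP-mCherry timer, after a GGGS linker. Cells are FACS-sorted into 8 mCherry/sfGFP bins and deep-sequenced. PSI runs from 0 (unstable) to 1 (stable); wild type and das1Δ backgrounds, two technical replicates each.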

Setting [1] is: genetic background: das1 deletion.

For the sequence KFDEKTATLVDE [YDL144C C-terminal 12 aa], the protein stability index is, setting by setting: under setting [1], 0.692 ± 0.027; (genetic background: wild type) 0.675 ± 0.022.

For the sequence KFETPGEYKKRI [LCL3 C-terminal 12 aa], the protein stability index turned out to be 0.697 ± 0.029 under setting [1] and 0.712 ± 0.019 (genetic background: wild type).

For “KFPLSVKKKIRI [YNR075C-A C-terminal 12 aa]”, the protein stability index was found to be 0.6821 ± 0.0027 under setting [1] and 0.697 ± 0.066 (genetic background: wild type).

With KGKLITKVNNEE [YML131W C-terminal 12 aa], the protein stability index is, setting by setting: under setting [1], 0.648 ± 0.029; (genetic background: wild type) 0.628 ± 0.04.

Take KGPSKTALLSKK [PKP1 C-terminal 12 aa]: the protein stability index runs as follows: under setting [1], 0.707 ± 0.021; (genetic background: wild type) 0.711 ± 0.033.

Take KGVIGTNPPITH [MPC3 C-terminal 12 aa]: the protein stability index is, setting by setting: under setting [1], 0.7045 ± 0.0018; (genetic background: wild type) 0.719 ± 0.081.

Take KGVVTLEEILKA [COQ11 C-terminal 12 aa]: the protein stability index was 0.712 ± 0.012 under setting [1] and 0.712 ± 0.028 (genetic background: wild type).

Consider KHKNILPFNFTK [YEL074W C-terminal 12 aa], for which the protein stability index by setting is: under setting [1], 0.703 ± 0.037; (genetic background: wild type) 0.741 ± 0.0086.

Consider KIGKGKLYFAIV [YDR220C C-terminal 12 aa], for which the protein stability index was found to be 0.666 ± 0.011 under setting [1] and 0.491 ± 0.015 (genetic background: wild type).

KIITLDLSNYAE [SMC1 C-terminal 12 aa]: the protein stability index is 0.709 ± 0.057 under setting [1] and 0.672 ± 0.049 (genetic background: wild type).

Turning to KIRPTFGDNQAS [HST3 C-terminal 12 aa], the protein stability index by setting is: under setting [1], 0.6923 ± 0.001; (genetic background: wild type) 0.73 ± 0.043.

Take KISLLSHAQCYK [YIR016W C-terminal 12 aa]: the protein stability index is 0.668 ± 0.024 under setting [1] and 0.6506 ± 0.0051 (genetic background: wild type).

Consider KKGETFGYDKWW [OPT1 C-terminal 12 aa], for which the protein stability index by setting is: under setting [1], 0.725 ± 0.021; (genetic background: wild type) 0.683 ± 0.032.

Regarding KKGPKFKSRKKL [RRP12 C-terminal 12 aa], the protein stability index under setting [1] was 0.748 ± 0.037 and the protein stability index (genetic background: wild type) is 0.678 ± 0.011.

For KKHRVGMPKEDK [DIC1 C-terminal 12 aa], the protein stability index is, setting by setting: under setting [1], 0.67 ± 0.013; (genetic background: wild type) 0.69 ± 0.031.

Turning to “KKIIKKKDFYHR [YOR011W-A C-terminal 12 aa]”, the protein stability index reads like this: under setting [1], 0.728 ± 0.015; (genetic background: wild type) 0.706 ± 0.04.

Consider KKKDASQEESLI [VMA2 C-terminal 12 aa], for which the protein stability index reads like this: under setting [1], 0.6922 ± 0.0019; (genetic background: wild type) 0.7066 ± 0.0041.

Take KKKKNASTCTIL [RSR1 C-terminal 12 aa]: the protein stability index runs as follows: under setting [1], 0.7494 ± 0.0014; (genetic background: wild type) 0.711 ± 0.03.

As for “KKKKQIKNFQFG [YMR290W-A C-terminal 12 aa]”, the protein stability index runs as follows: under setting [1], 0.687 ± 0.0087; (genetic background: wild type) 0.656 ± 0.05.

KKLDGEVLCRVK [MRPS8 C-terminal 12 aa]: the protein stability index is 0.659 ± 0.021 under setting [1] and 0.6437 ± 0.0055 (genetic background: wild type).

Consider KKLNRKIASIFN [ZEO1 C-terminal 12 aa], for which the protein stability index was found to be 0.718 ± 0.011 under setting [1] and 0.6644 ± 0.0016 (genetic background: wild type).

As for KKLRQPKEGETF [MMS2 C-terminal 12 aa], the protein stability index came out at 0.7046 ± 0.00082 under setting [1] and 0.6737 ± 0.00082 (genetic background: wild type).

In turn, KKRKFGKVRIKN [NEJ1 C-terminal 12 aa] showed a protein stability index under setting [1] of 0.706 ± 0.047 and a protein stability index (genetic background: wild type) of 0.698 ± 0.0074.

Turning to KLAEHGAKKQKI [GCD10 C-terminal 12 aa], the protein stability index by setting is: under setting [1], 0.7217 ± 0.0024; (genetic background: wild type) 0.659 ± 0.016.

As to KLESSKNTSHEK [NFU1 C-terminal 12 aa], the protein stability index by setting is: under setting [1], 0.725 ± 0.0084; (genetic background: wild type) 0.705 ± 0.0085.

KLGLFRHIFSRK [LRE1 C-terminal 12 aa]: the protein stability index by setting is: under setting [1], 0.691 ± 0.012; (genetic background: wild type) 0.704 ± 0.01.

For the sequence KLLIRFILLVNS [YPR130C C-terminal 12 aa], the protein stability index runs as follows: under setting [1], 0.172 ± 0.016; (genetic background: wild type) 0.111 ± 0.0048.

With KLLLNELRSFCV [PCL10 C-terminal 12 aa], the protein stability index by setting is: under setting [1], 0.72 ± 0.009; (genetic background: wild type) 0.694 ± 0.028.

For KLLQIHKSKQQD [TAH11 C-terminal 12 aa], the protein stability index under setting [1] came out at 0.69 ± 0.013 and the protein stability index (genetic background: wild type) is 0.706 ± 0.012.

In the case of KLRITSQENKTE [BCK1 C-terminal 12 aa], the protein stability index reads like this: under setting [1], 0.68 ± 0.022; (genetic background: wild type) 0.766 ± 0.036.

KLRREDEIIVYA [REC8 C-terminal 12 aa]: the protein stability index worked out at 0.6145 ± 0.0033 under setting [1] and 0.644 ± 0.0052 (genetic background: wild type).

For the sequence “KLVWTLQSLCMR [YEL032C-A C-terminal 12 aa]”, the protein stability index came to 0.688 ± 0.0084 under setting [1] and 0.681 ± 0.021 (genetic background: wild type).

Regarding KMIESLKSKLKE [CIN5 C-terminal 12 aa], the protein stability index is, setting by setting: under setting [1], 0.693 ± 0.02; (genetic background: wild type) 0.686 ± 0.027.

Consider KMKQRKLTPGDS [CMC4 C-terminal 12 aa], for which the protein stability index runs as follows: under setting [1], 0.691 ± 0.018; (genetic background: wild type) 0.65 ± 0.0073.

In the case of KNEEDSTYFSNV [PMR1 C-terminal 12 aa], the protein stability index is 0.6935 ± 0.0013 under setting [1] and 0.698 ± 0.027 (genetic background: wild type).

As for KNKTKQNQAQSW [LTO1 C-terminal 12 aa], the protein stability index is 0.704 ± 0.012 under setting [1] and 0.679 ± 0.017 (genetic background: wild type).

For the sequence KNLWMRENEITI [HES1 C-terminal 12 aa], the protein stability index is, setting by setting: under setting [1], 0.711 ± 0.059; (genetic background: wild type) 0.71 ± 0.018.

Regarding KNSDSTEKNATI [DAT1 C-terminal 12 aa], the protein stability index runs as follows: under setting [1], 0.702 ± 0.026; (genetic background: wild type) 0.736 ± 0.034.

As for KPGTIIHFSTNR [ASK1 C-terminal 12 aa], the protein stability index runs as follows: under setting [1], 0.71325 ± 0.00059; (genetic background: wild type) 0.691 ± 0.034.

In the case of KQEQESLGSNSK [DAD3 C-terminal 12 aa], the protein stability index runs as follows: under setting [1], 0.666 ± 0.012; (genetic background: wild type) 0.661 ± 0.035.

As to KQLDLKHMLEMH [MRPL44 C-terminal 12 aa], the protein stability index runs as follows: under setting [1], 0.7 ± 0.0085; (genetic background: wild type) 0.6897 ± 0.0057.

For KQPDLQERVTQE [MHF1 C-terminal 12 aa], the protein stability index was 0.666 ± 0.045 under setting [1] and 0.685 ± 0.14 (genetic background: wild type).

Take KRAELASKYIYS [COG8 C-terminal 12 aa]: the protein stability index is, setting by setting: under setting [1], 0.713 ± 0.022; (genetic background: wild type) 0.692 ± 0.015.

On to KRGEIYETGKFF [OLE1 C-terminal 12 aa], for which the protein stability index was 0.707 ± 0.011 under setting [1] and 0.723 ± 0.011 (genetic background: wild type).

For the sequence KTSNTKVSSRKA [ELO3 C-terminal 12 aa], the protein stability index runs as follows: under setting [1], 0.6964 ± 0.0051; (genetic background: wild type) 0.673 ± 0.03.

Regarding KTSPTCHNMFDV [SDD4 C-terminal 12 aa], the protein stability index runs as follows: under setting [1], 0.7283 ± 0.0018; (genetic background: wild type) 0.6781 ± 0.00075.

For the sequence KVGNDHMELKKE [TFG1 C-terminal 12 aa], the protein stability index came out at 0.699 ± 0.013 under setting [1] and 0.671 ± 0.035 (genetic background: wild type).

In the case of KVHEHDAKNDSK [CMP2 C-terminal 12 aa], the protein stability index came to 0.702 ± 0.032 under setting [1] and 0.688 ± 0.054 (genetic background: wild type).

On to KVTFINIEINYR [YGR064W C-terminal 12 aa], for which the protein stability index under setting [1] came out at 0.57 ± 0.02 and the protein stability index (genetic background: wild type) was 0.591 ± 0.03.

For the sequence KWFRENDGKKAN [TSC10 C-terminal 12 aa], the protein stability index is, setting by setting: under setting [1], 0.7006 ± 0.0047; (genetic background: wild type) 0.6772 ± 0.0044.
